Our source for the binding result and Kd values is patent US20230021388A1 (VELOSBIO, published 2023).

Positions count from the first letter of the chain named. Names and notes keep the numbering of the source.

B1: Ab1 Fab variant H1 A30I (Fab, V domains shown)
VH: QVQLQESGPGLVKPSQTLSLTCTVSGYIFTAYNIHWVRQAPGQGLEWMGSFDPYDGGSSYNQKFKDRLTISKDTSKNQVVLTMTNMDPVDTATYYCARGWYYFDYWGHGTLVTVSS
VL: DIVMTQTPLSLPVTPGEPASISCRASKSISKYLAWYQQKPGQAPRLLIYSGSTLQSGIPPRFSGSGYGTDFTLTINNIESEDAAYYFCQQHDESPYTFGEGTKVEIK
notes: Fab
B2: Ab1 Fab variant H3 F136L (Fab, V domains shown)
VH: B1 VH with I28A, F103L
VL: B1 VL
notes: Fab
B3: Ab1 Fab variant H1 Y29S (Fab, V domains shown)
VH: B1 VH with Y27S, I28A
VL: B1 VL
notes: Fab
B4: Ab1 Fab variant H2 G67M (Fab, V domains shown)
VH: B1 VH with I28A, G57M
VL: B1 VL
notes: Fab
B5: Ab1 Fab variant H1 N40K (Fab, V domains shown)
VH: B1 VH with I28A, N33K
VL: B1 VL
notes: Fab
B6: Ab1 Fab variant H1 F31L (Fab, V domains shown)
VH: B1 VH with I28A, F29L
VL: B1 VL
notes: Fab
B7: Ab1 Fab variant H2 K75G (Fab, V domains shown)
VH: B1 VH with I28A, K65G
VL: B1 VL
notes: Fab
B8: Ab1 Fab variant H3 A107V (Fab, V domains shown)
VH: B1 VH with I28A, A97V
VL: B1 VL
notes: Fab
B9: Ab1 Fab variant H1 A30R (Fab, V domains shown)
VH: B1 VH with I28R
VL: B1 VL
notes: Fab
B10: Ab1 Fab variant H2 S68I (Fab, V domains shown)
VH: B1 VH with I28A, S58I
VL: B1 VL
notes: Fab
B11: Ab1 Fab variant H2 D65N (Fab, V domains shown)
VH: B1 VH with I28A, D55N
VL: B1 VL
notes: Fab
B12: Ab1 Fab variant H1 G27D (Fab, V domains shown)
VH: B1 VH with G26D, I28A
VL: B1 VL
notes: Fab
B13: Ab1 Fab variant H2 G67H (Fab, V domains shown)
VH: B1 VH with I28A, G57H
VL: B1 VL
notes: Fab
B14: Ab1 Fab variant H1 F31W (Fab, V domains shown)
VH: B1 VH with I28A, F29W
VL: B1 VL
notes: Fab
B15: Ab1 Fab variant H2 S68Q (Fab, V domains shown)
VH: B1 VH with I28A, S58Q
VL: B1 VL
notes: Fab
B16: Ab1 Fab variant H2 F58P (Fab, V domains shown)
VH: B1 VH with I28A, F51P
VL: B1 VL
notes: Fab
B17: Ab1 Fab variant H3 A107T (Fab, V domains shown)
VH: B1 VH with I28A, A97T
VL: B1 VL
notes: Fab
B18: Ab1 Fab variant H1 T32D (Fab, V domains shown)
VH: B1 VH with I28A, T30D
VL: B1 VL
notes: Fab
B19: Ab1 Fab variant H2 D59S (Fab, V domains shown)
VH: B1 VH with I28A, D52S
VL: B1 VL
notes: Fab
B20: Ab1 Fab variant H2 K73C (Fab, V domains shown)
VH: B1 VH with I28A, K63C
VL: B1 VL
notes: Fab
B21: Ab1 Fab variant H2 K73S (Fab, V domains shown)
VH: B1 VH with I28A, K63S
VL: B1 VL
notes: Fab
B22: Ab1 Fab variant H2 G67S (Fab, V domains shown)
VH: B1 VH with I28A, G57S
VL: B1 VL
notes: Fab
B23: Ab1 Fab variant H2 D65T (Fab, V domains shown)
VH: B1 VH with I28A, D55T
VL: B1 VL
notes: Fab
B24: Ab1 Fab variant H2 K75A (Fab, V domains shown)
VH: B1 VH with I28A, K65A
VL: B1 VL
notes: Fab
B25: Ab1 Fab variant H2 S68E (Fab, V domains shown)
VH: B1 VH with I28A, S58E
VL: B1 VL
notes: Fab
B26: Ab1 Fab variant H1 G27R (Fab, V domains shown)
VH: B1 VH with G26R, I28A
VL: B1 VL
notes: Fab
B27: Ab1 Fab variant H2 P60G (Fab, V domains shown)
VH: B1 VH with I28A, P53G
VL: B1 VL
notes: Fab
B28: Ab1 Fab variant H1 Y29K (Fab, V domains shown)
VH: B1 VH with Y27K, I28A
VL: B1 VL
notes: Fab
B29: Ab1 Fab variant H2 P60T (Fab, V domains shown)
VH: B1 VH with I28A, P53T
VL: B1 VL
notes: Fab
B30: Ab1 Fab variant H1 G27T (Fab, V domains shown)
VH: B1 VH with G26T, I28A
VL: B1 VL
notes: Fab
B31: Ab1 Fab variant H1 N40R (Fab, V domains shown)
VH: B1 VH with I28A, N33R
VL: B1 VL
B32: Ab1 Fab variant H2 S57A (Fab, V domains shown)
VH: B1 VH with I28A, S50A
VL: B1 VL
B33: Ab1 Fab variant H1 I41V (Fab, V domains shown)
VH: B1 VH with I28A, I34V
VL: B1 VL
B34: Ab1 Fab variant L2 T69H (Fab, V domains shown)
VH: B1 VH with I28A
VL: B1 VL with T53H
notes: Fab; also called SGSHLQS
B35: Ab1 Fab variant L2 T69R (Fab, V domains shown)
VH: B1 VH with I28A
VL: B1 VL with T53R
notes: Fab; also called SGSRLQS

The target in the first test is T1, recombinant human ROR1 extracellular domain (human, UniProt Q01973 30-406).
T1 construct: biotinylated for the filter lifts; also called huROR1-ECD; human ROR1-ECD
T1 sequence (Q01973 30-406 limits assumed): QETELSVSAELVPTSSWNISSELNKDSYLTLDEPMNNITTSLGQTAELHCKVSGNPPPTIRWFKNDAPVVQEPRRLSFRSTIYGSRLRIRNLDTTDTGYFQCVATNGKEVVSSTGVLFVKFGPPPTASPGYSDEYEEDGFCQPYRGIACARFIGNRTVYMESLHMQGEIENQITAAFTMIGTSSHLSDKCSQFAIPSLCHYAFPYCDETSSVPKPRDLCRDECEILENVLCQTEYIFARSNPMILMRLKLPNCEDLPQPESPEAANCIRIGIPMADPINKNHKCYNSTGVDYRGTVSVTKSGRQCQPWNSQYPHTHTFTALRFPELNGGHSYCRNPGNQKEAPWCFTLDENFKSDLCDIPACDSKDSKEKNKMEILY
In words: capture filter lift. As to the method:
Subsequently, the filter was applied to the agar plates as described above. For detection of antigen binding, the filter was rinsed briefly in PBS, and transferred to biotinylated huROR1-ECD (ACROBiosystems, cat. #RO1-H522y) in 5% M-P.
Filters were incubated with 2.3 nM biotinylated ROR1 diluted in 5% M-P for 2 h at 25° C. with constant agitation, and washed 5 times, 2 minutes each wash, with constant agitation in PBS-T. Alternatively, filters were washed more rapidly using a squirt bottle and sintered glass funnel for vacuum filtration. The filters were transferred to 10 mL of High Sensitivity Neutravidin, HRP conjugate (Thermo Scientific, cat. #31030) diluted 5000-fold in 1% BSA in PBS and incubated for 1 h at 25° C. The filters were then washed 5 times in PBS-T and were developed with 1-Step Ultra TMB-Blotting.
All libraries were initially screened by capture lift to identify variants with improved binding. The capture lift assay, described in Example 1, enables the filter lift assay to discern variants that bind antigen more strongly based on the staining intensity. In order to determine the optimal concentration of antigen to use for screening, biotinylated huROR1-ECD was titrated on a capture lift of Ab1 Fab. Binding to Ab1 was clearly visible at antigen concentrations ≥23 nM and the signal was diminished at lower huROR1 concentrations. […] In addition, for more stringent screening, filters were probed with lower concentrations of antigen and/or development of the filter was terminated earlier, before the Ab1 staining was visible. […] In this example, approximately 250 library variants were plated. Twelve variants clearly bound huROR1 (FIG. 4, numbered).
With B1, the binding result is on record as “binds”.

For B2, the binding result is recorded as “binds”.

For B3, the binding result is reported as “binds”.

For the molecule B4, the binding result is “binds”.

B5: the binding result is “binds”.

As to B6, the binding result is recorded as “binds”.

B7: the binding result is on record as “binds”.

Take B8: the binding result is recorded as “binds”.

Consider B9, for which the binding result is given as “binds”.

For the molecule B10, the binding result is given as “binds”.

In the case of B11, the binding result was “binds”.

Consider B12, for which the binding result is recorded as “binds”.

As to B13, the binding result is on record as “binds”.

On to B14, for which the binding result was “binds”.

On to B15, for which the binding result is given as “binds”.

Regarding B16, the binding result was “binds”.

On to B17, for which the binding result is “binds”.

Regarding B18, the binding result is recorded as “binds”.

As for B19, the binding result is given as “binds”.

As for B20, the binding result is “binds”.

Regarding B21, the binding result is “binds”.

Turning to B22, the binding result is on record as “binds”.

As for B23, the binding result is given as “binds”.

With B24, the binding result is given as “binds”.

Regarding B25, the binding result was “binds”.

On to B26, for which the binding result was “binds”.

Turning to B27, the binding result is “binds”.

In the case of B28, the binding result is “binds”.

B29: the binding result is listed as “binds”.

Take B30: the binding result was “binds”.

The target in another test is T1, recombinant human ROR1 extracellular …. In words: ELISA, soluble Fab on coated huROR1-ECD. As to the method: The previously described filter lift assay provides a visual, qualitative assessment of antigen binding (Example 1). In order to assess the ROR1 binding activity of Ab1 Fab in a more quantitative fashion, an ELISA assay was developed. A 96-well Costar-3366 plate was coated with 50 μL/well of 1 μg/mL human ROR1-ECD (ACROBiosystems, cat. #RO1-H522y) in PBS overnight at 4° C. The plate was rinsed once with PBS-T and blocked with 100 μL/well of 5% M-P for 1 h at 25° C. Fab samples were serially diluted 3-fold using 5% M-P and 50 μL/well was incubated for 1 h at 25° C. The plate was washed three times with PBS-T and 50 μL/well anti-human kappa, and HRP conjugate (Southern Biotech, cat. #2060-05) diluted 10,000-fold in 5% M-P was added for 1 h at 25° C. In certain assays (extended wash format), the plate was placed in large volumes (up to 1 L) of PBS-T and incubated, with mixing, for 2-5 h prior to the addition of anti-human kappa, HRP conjugate. The plate was washed three times with PBS-T, and developed with 50 μL/well 1-Step Ultra TMB-ELISA (Thermo Scientific, cat. #34028). The reaction was terminated by the addition of 2 N H2504 and the A450 was determined using a Spectramax plate reader.
Consider B31, for which the Kd was determined as 43 nM.

B32: the Kd worked out at 3.6 nM.

Turning to B33, the Kd worked out at 3.5 nM.

B34: the Kd is 1.5 nM.

Consider B35, for which the Kd turned out to be 2.1 nM.
